The results in this text go back to the RNAGym collection of RNA variant scans (doi:10.7554/elife.80360).

The chains are these.
B1: Hairpin Ribozyme (parent)
chain: GUCCUCUUUCACGUGCGCGUGAAAGAGAGAAGUGAACCAGAGAAACACACGUUGUGGUAUAUUACCUGGUA

The data set covers variants of B1. Description: self-cleavage, relative activity (ratio to wild type); higher = more cleavage; co-transcriptional.
Consider GUCCUCUUUCACGUGCGCGUGAAAGAGAGAAGUGUACCAGAGAAACACACGUUGUGGUAAAUUACCUGGUA, for which the self-cleavage came to 0.426.
As for GUCCUCUUUCACGUGCGCGUGAAAGAGAGAAGUGUACCAGAGAAACACACGUUGUGGUAUAAUACCUGGUA, the self-cleavage worked out at 0.158.
To GUCCUCUUUCACGUGCGCGUGAAAGAGAGAAGUGACCCAGAGAAUCACACGUUGUGGUAUAUUACCUGGUA belongs 0.124.
On to GUCCUCUUUCACGUGCGCGUGAAAGAGAGAAGUGACCCCGAGAAACACACGUUGUGGUAUAUUACCUGGUA, for which the self-cleavage was 0.216.
As to GUCCUCUUUCACGUGCGCGUGAAAGAGAGAAGUGACCCAGAGAAACACUCGUUGUGGUAUAUUACCUGGUA, the self-cleavage was 0.203.
The value for GUCCUCUUUCACGUGCGCGUGAAAGAGAGAAGUGACCCAGAGAAACACACGUUGUGGUCUAUUACCUGGUA was 0.0815.
Consider GUCCUCUUUCACGUGCGCGUGAAAGAGAGAAGUGUACCAGAGAAACACACGUUGUCGUAUAUUACCUGGUA, for which the self-cleavage was found to be 0.124.
Consider GUCCUCUUUCACGUGCGCGUGAAAGAGAGAAGUGACCCAGGGAAACACACGUUGUGGUAUAUUACCUGGUA, for which the self-cleavage was determined as 0.894.
To GUCCUCUUUCACGUGCGCGUGAAAGAGAGAAGUGUACCAGAGAAACACACGUUGUGGGAUAUUACCUGGUA belongs 0.553.
The value for GUCCUCUUUCACGUGCGCGUGAAAGAGAGAAGUGUACCAGAGAAACACACGUUGUGGCAUAUUACCUGGUA was 0.798; that for GUCCUCUUUCACGUGCGCGUGAAAGAGAGAAGUGACCCAGAGUAACACACGUUGUGGUAUAUUACCUGGUA was 0.126; that for GUCCUCUUUCACGUGCGCGUGAAAGAGAGAAGUGACCCAGAGCAACACACGUUGUGGUAUAUUACCUGGUA was 0.07.
The value for GUCCUCUUUCACGUGCGCGUGAAAGAGAGAAGUGACCCAGAGAAACACACGUUGUGGUAUAUUGCCUGGUA was 0.281; that for GUCCUCUUUCACGUGCGCGUGAAAGAGAGAAGUGACCCAGAGAAACACACGUUGUGGUAUUUUACCUGGUA was 0.162; that for GUCCUCUUUCACGUGCGCGUGAAAGAGAGAAGUGUACCAGAGAAACACACGUUGUGGUAUAUUACCUGGCA was 0.702.
Turning to GUCCUCUUUCACGUGCGCGUGAAAGAGAGAAGUGUACCAGAGAAACACACGUUGUGGUAUAUUACCUGGAA, the self-cleavage came to 0.703.
To GUCCUCUUUCACGUGCGCGUGAAAGAGAGAAGUGUACCAGAGAAACACACGUUGUGGUAUAUCACCUGGUA belongs 0.152; to GUCCUCUUUCACGUGCGCGUGAAAGAGAGAAGUGUACCAGAGAAACACACGUUGUGAUAUAUUACCUGGUA, 0.193.
For the variant GUCCUCUUUCACGUGCGCGUGAAAGAGAGAAGUGUACCAGAGAAACACACGUUGUGGUAUAUUACCUUGUA, the self-cleavage is 0.177.
For the variant GUCCUCUUUCACGUGCGCGUGAAAGAGAGAAGUGUACCAGAGAAACACACGUUGUGGUAUAUUACCUCGUA, the self-cleavage turned out to be 0.206.
To GUCCUCUUUCACGUGCGCGUGAAAGAGAGAAGUGUACCAGAGAAACACACGUUGUGGUAUAUUACUUGGUA belongs 0.151; to GUCCUCUUUCACGUGCGCGUGAAAGAGAGAAGUGUACCAGAGAAACACACGUUGUGGUAUAUUACGUGGUA, 0.0865; to GUCCUCUUUCACGUGCGCGUGAAAGAGAGAAGUGUACUAGAGAAACACACGUUGUGGUAUAUUACCUGGUA, 0.216.
Consider GUCCUCUUUCACGUGCGCGUGAAAGAGAGAAGUGUACAAGAGAAACACACGUUGUGGUAUAUUACCUGGUA, for which the self-cleavage was 0.135.
To GUCCUCUUUCACGUGCGCGUGAAAGAGAGAAGUGUACCAGAUAAACACACGUUGUGGUAUAUUACCUGGUA belongs 0.109.
Regarding GUCCUCUUUCACGUGCGCGUGAAAGAGAGAAGUGUACCAUAGAAACACACGUUGUGGUAUAUUACCUGGUA, the self-cleavage came out at 0.134.
For GUCCUCUUUCACGUGCGCGUGAAAGAGAGAAGUGACCCAGAGACACACACGUUGUGGUAUAUUACCUGGUA, the self-cleavage stood at 0.122.
For GUCCUCUUUCACGUGCGCGUGAAAGAGAGAAGUGACCCAGAGAUACACACGUUGUGGUAUAUUACCUGGUA, the self-cleavage came out at 0.307.
The value for GUCCUCUUUCACGUGCGCGUGAAAGAGAGAAGUGACCCAGAGAGACACACGUUGUGGUAUAUUACCUGGUA was 0.157; that for GUCCUCUUUCACGUGCGCGUGAAAGAGAGAAGUGUACCAGAGAAACACACAUUGUGGUAUAUUACCUGGUA was 0.965; that for GUCCUCUUUCACGUGCGCGUGAAAGAGAGAAGUGUACCAGAGAAACACACUUUGUGGUAUAUUACCUGGUA was 0.794.
The value for GUCCUCUUUCACGUGCGCGUGAAAGAGAGAAGUGUACCAGAGAAACACACCUUGUGGUAUAUUACCUGGUA was 0.484.
To GUCCUCUUUCACGUGCGCGUGAAAGAGAGAAGUGUACCAGAGAAACACACGUUGUGGUAUAUUAGCUGGUA belongs 0.204; to GUCCUCUUUCACGUGCGCGUGAAAGAGAGAAGUGUACCAGAGAAACACACGUUGUGGUAUAUUAUCUGGUA, 0.223.
Turning to GUCCUCUUUCACGUGCGCGUGAAAGAGAGAAGUGUACCAGAGAAACACACGUGGUGGUAUAUUACCUGGUA, the self-cleavage was determined as 0.429.
To GUCCUCUUUCACGUGCGCGUGAAAGAGAGAAGUGUACCAGAGAAACACACGUCGUGGUAUAUUACCUGGUA belongs 1.04.
Consider GUCCUCUUUCACGUGCGCGUGAAAGAGAGAAGUGUACCAGAGAAACACACGUUGAGGUAUAUUACCUGGUA, for which the self-cleavage was 0.129.
GUCCUCUUUCACGUGCGCGUGAAAGAGAGAAGUGUACCAGAGAAAGACACGUUGUGGUAUAUUACCUGGUA: the self-cleavage is 0.146.
